Data published in patent US20240018252A1 (Pfizer, published 2024).

Molecular target: T1, human CD3 (huCD3ed) (human, UniProt P07766 23-126; P04234 22-105)
T1 construct: Soluble analyte in SPR; The delta chain is inferred from the label 'ed'; also called hCD3ed; hCD3
Test: Biacore SPR, antibody as ligand, hCD3ed; steady state affinity only, rough estimate (antibody heterogeneous)

T1 sequence (P07766 23-126, chain 1 of 2): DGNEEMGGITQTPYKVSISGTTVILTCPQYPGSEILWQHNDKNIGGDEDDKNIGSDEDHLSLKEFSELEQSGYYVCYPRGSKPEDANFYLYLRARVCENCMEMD
T1 sequence (P04234 22-105, chain 2 of 2): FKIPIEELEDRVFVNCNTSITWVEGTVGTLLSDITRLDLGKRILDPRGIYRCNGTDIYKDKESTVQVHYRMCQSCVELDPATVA

B1: 1A4 (antibody, mouse IgG1, V domains shown)
VH: QVQLQQSGPDLVKPGASVEISCKASGYSFTTYYLHWVRQRPGQGLEWIGWIFPGSDNTKYNEKFKGKATLTADTSSSTAYMQLSSLTSEDSAVYFCARNRDYYFDYWGQGTTVTVSS
VL: DIVMSQSPSSLAVSAGEKVTMSCKSSQSLLNSRTRKNYLAWYQQKPGQSPKLLIYWASTRASGVPDRFTGSGSGTDFTLTISSVQAEDLAIYYCKQSFILRTFGGGTKLEIK
notes: Cloned from immunized mouse, expressed as mouse IgG1; also called anti-CD3 1A4
**Q.** B1 was tested. Which Kd did it give?
**A.** Its Kd is 100 nM.
